PMC4735815, “Protein unfolding as a switch from self-recognition to high-affinity client binding” (Nature Communications, 2016)

Target: the molecule itself
Assay: cross-linking; in vitro UV crosslinking of purified Hsp33^M172S-BPA variants alone; dimers at ∼70 kDa

B1: Hsp33^M172SL202BPA (natural protein)
chain: MIMPQHDQLHRYLFENFAVRGELVTVSETLQQILENHDYPQPVKNVLAELLVATSLLTATLKFDGDITVQLQGDGPMNLAVINGNNNQQMRGVARVQGEIPENADLKTLVGNGYVVITITPSEGERYQGVVGLEGDTLAACLEDYFMRSEQLPTRLFIRTGDVDGKPAAGGSLLQVMPAQNAQQDDFDHLATLTETIKTEEFLTLPANEVLWRLYHEEEVTVYDPQDVEFKCTCSRERCADALKTLPDEEVDSILAEDGEIDMHCDYCGNHYLFNAMDIAEIRNNASPADPQVH
modifications: p-benzoyl-L-phenylalanine (BPA) at position 202
stoichiometry N: 2
